The record followed here is patent US10487147B2, “Anti-PD-L1 antibodies and uses thereof” (Merck Patent GmbH, priority 2011, dated 2019).

Tested on in one data set: not listed separately
Kind of data set: Analytical size exclusion chromatography of wild type and mutant PD-L1 proteins. Format: physicochemical. The conditions noted are these: qualitative appearance of the PD-L1 antigen protein on size exclusion chromatography.
For “Q107A: PD-L1 point mutant antigen expressed in HEK cells [Antibody Q107A]”, the SEC entry was “M/T”.
Turning to “V68R: PD-L1 point mutant antigen expressed in HEK cells [Antibody V68R]”, the SEC entry was “M/T”.

Another data set concerns PANC02 cells. Briefly: Combination with Gemcitabine in the PANC02 orthotopic model. The following applies: GEM 150 mg/kg or A09-246-2 400 μg per mouse alone.
On to `Nc1ccn([C@@H]2O[C@H](CO)[C@@H](O)C2(F)F)c(=O)n1` [GEM, Gemcitabine], for which the “survival time, monotherapy” value is on record as “failed to extend survival time”.

The subject of the next data set is MC38 colon carcinoma cells. Briefly: Combination with low dose cyclophosphamide in MC38 subcutaneous tumor model. The data set is classed as in vivo, mice. The following applies: CPA 100 mg/kg or A09-246-2 100 μg. The protocol:
Low-dose CPA is known to enhance anti-tumor immune responses through the inhibition of immunosuppressive regulatory T cells. […] Mice were inoculated […] in the right flank with 1×10^6 MC38 colon carcinoma cells. When tumors reached a mean volume of ˜50 mm^3, mice were sorted into treatment groups (N=14) on day 0. […] Using an ELISPOT assay, the effects of treatment on the magnitude of CD8^+ T cell responses directed against the well-characterized p15E tumor antigen were measured.
On to `O=P1(N(CCCl)CCCl)NCCCO1` (centres unmarked) [CPA, cyclophosphamide], for which the “p15E-reactive CD8+ T cells (ELISPOT), single agent” value was roughly 100 spots.

Tested on in another data set: not listed separately
Kind of data set: Fluorescence monitored thermal unfolding assay of wild type and mutant PD-L1 proteins. The conditions noted are these: temperature midpoint of fluorescently monitored thermal denaturation of the PD-L1 antigen protein. The data set is classed as physicochemical. The text has this: As the temperature increases, thermal denaturation of the protein exposes the hydrophobic core residues and this can be monitored by an increase in fluorescence of the dye. […] The data ware fit to equation 1 (adapted from Bullock, A. N. et al. Thermodynamic stability of wild-type and mutant p53 core domain. PNAS 94, 14338-14342 (1997)) to determine the temperature at the inflection point of the curve (T1/2).
Take “A51Q: PD-L1 point mutant antigen expressed in HEK cells [Antibody A51Q]”: the T1/2 is 57.3 +/− 0.6 °C.
Still for that read-out and setting: the figure for “A52R: PD-L1 point mutant antigen expressed in HEK cells [Antibody A52R]” is 55.2 °C; for “A109E: PD-L1 point mutant antigen expressed in HEK cells [Antibody A109E]” it is 54.0 °C; for “A121R: PD-L1 point mutant antigen expressed in HEK cells [Antibody A121R]” it is 54.0 +/− 0.5 °C.
For the compound “D26A: PD-L1 point mutant antigen expressed in HEK cells [Antibody D26A]”, the T1/2 was 52.8 +/− 0.2 °C.
Regarding “D49A: PD-L1 point mutant antigen expressed in HEK cells [Antibody D49A]”, the T1/2 result is reported as “BP (>49) ° C”.
In turn, “D61A: PD-L1 point mutant antigen expressed in HEK cells [Antibody D61A]” came in with a T1/2 of 52.0 °C.
Same read-out and setting: the figure for “D73A: PD-L1 point mutant antigen expressed in HEK cells [Antibody D73A]” is 53.5 +/− 2.1 °C; for “E45A: PD-L1 point mutant antigen expressed in HEK cells [Antibody E45A]” it is 58.0 °C.
For “E58A: PD-L1 point mutant antigen expressed in HEK cells [Antibody E58A]”, the T1/2 is 54.6 +/− 0.6 °C.
In the case of “E60A: PD-L1 point mutant antigen expressed in HEK cells [Antibody E60A]”, the T1/2 worked out at 50.4 °C.
Regarding “E71A: PD-L1 point mutant antigen expressed in HEK cells [Antibody E71A]”, the T1/2 was 52.8 +/− 1.5 °C.
On to “H78A: PD-L1 point mutant antigen expressed in HEK cells [Antibody H78A]”, for which the T1/2 is 56.6 +/− 0.6 °C.
For “I54A: PD-L1 point mutant antigen expressed in HEK cells [Antibody I54A]”, the T1/2 was 57.2 +/− 2.5 °C.
“I54K: PD-L1 point mutant antigen expressed in HEK cells [Antibody I54K]” returned a T1/2 of 57.2 °C.
As to “K46A: PD-L1 point mutant antigen expressed in HEK cells [Antibody K46A]”, the T1/2 is 51.6 °C.
For “K75A: PD-L1 point mutant antigen expressed in HEK cells [Antibody K75A]”, the T1/2 was 57.7 +/− 1.8 °C.
Regarding “K105A: PD-L1 point mutant antigen expressed in HEK cells [Antibody K105A]”, the T1/2 is 57.0 +/− 1.5 °C.
In the case of “K124A: PD-L1 point mutant antigen expressed in HEK cells [Antibody K124A]”, the T1/2 is 53.1 +/− 0.6 °C.
Still for that read-out and setting: as for “K129A: PD-L1 point mutant antigen expressed in HEK cells [Antibody K129A]”, the figure is 50.8 +/− 1.2 °C.
Same read-out and setting: as for “L27A: PD-L1 point mutant antigen expressed in HEK cells [Antibody L27A]”, the figure is 51.7 +/− 0.5 °C; as for “M115A: PD-L1 point mutant antigen expressed in HEK cells [Antibody M115A]”, 51.4 +/− 0.1 °C; as for “Q107A: PD-L1 point mutant antigen expressed in HEK cells [Antibody Q107A]”, 58.6 +/− 2.0 °C.
For the compound “R82A: PD-L1 point mutant antigen expressed in HEK cells [Antibody R82A]”, the T1/2 is 51.2 +/− 0.4 °C.
Still for that read-out and setting: the figure for “R113A: PD-L1 point mutant antigen expressed in HEK cells [Antibody R113A]” is 56.7 °C.
On the same count and under the same terms, the figure for “R125A: PD-L1 point mutant antigen expressed in HEK cells [Antibody R125A]” is 51.8 +/− 0.2 °C; for “S79A: PD-L1 point mutant antigen expressed in HEK cells [Antibody S79A]” it is 56.3 +/− 0.9 °C; for “S79E: PD-L1 point mutant antigen expressed in HEK cells [Antibody S79E]” it is 60.0 °C.
The same measure, in the same setting: the figure for “S80A: PD-L1 point mutant antigen expressed in HEK cells [Antibody S80A]” is 57.0 °C.
As for “S80E: PD-L1 point mutant antigen expressed in HEK cells [Antibody S80E]”, the T1/2 is 56.8 +/− 4.5 °C.
Turning to “S117A: PD-L1 point mutant antigen expressed in HEK cells [Antibody S117A]”, the T1/2 is 52.7 +/− 0.3 °C.
Consider “T20A: PD-L1 point mutant antigen expressed in HEK cells [Antibody T20A]”, for which the T1/2 was 52.5 +/− 0.2 °C.
For the compound “T127A: PD-L1 point mutant antigen expressed in HEK cells [Antibody T127A]”, the T1/2 is 51.4 +/− 0.0 °C.
Consider “T127K: PD-L1 point mutant antigen expressed in HEK cells [Antibody T127K]”, for which the T1/2 was found to be 54.0 °C.
“V68R: PD-L1 point mutant antigen expressed in HEK cells [Antibody V68R]” yielded a T1/2 of 56.0 °C.
With “V76A: PD-L1 point mutant antigen expressed in HEK cells [Antibody V76A]”, the T1/2 is 55.7 °C.
As for “V111A: PD-L1 point mutant antigen expressed in HEK cells [Antibody V111A]”, the T1/2 was 50.2 +/− 0.2 °C.
On to “V111E: PD-L1 point mutant antigen expressed in HEK cells [Antibody V111E]”, for which the T1/2 was 51.6 +/− 0.0 °C.
The same measure, in the same setting: the figure for “Y56A: PD-L1 point mutant antigen expressed in HEK cells [Antibody Y56A]” is 57.5 +/− 0.7 °C; for “Y56K: PD-L1 point mutant antigen expressed in HEK cells [Antibody Y56K]” it is 55.4 +/− 1.3 °C.
